Measurements taken from publication PMC6689074, “In vivo Hox binding specificity revealed by systematic changes to a single cis regulatory module”.

Tests used:
[1] = target: T1, Ultrabithorax isoform IVa (UbxIVa);Extradenticle (Exd);Homothorax HM domain (HthHM) (Drosophila melanogaster?;Drosophila …, UniProt P83949-5;P40427;O46339 1-346;1-376;1-211, ||); test: EMSA; increased with high-affinity overlapping site; EMSA: 6 nM 32P dsDNA probe, 200 nM Exd-HM, 30-180 nM Hox; 4% polyacrylamide gel, 120 V, 2.5 h, 4 C; buffer, salt and pH not given in material; settings: protein: recombinant;recombinant;recombinant; tags: His (pET21b);none (pET9a);His (pET21b); copies: 1;1;1; label: 32P
[2] = target: T1, Ultrabithorax isoform IVa …; test: EMSA; strong binding; EMSA: 6 nM 32P dsDNA probe, 200 nM Exd-HM, 30-180 nM Hox; 4% polyacrylamide gel, 120 V, 2.5 h, 4 C; buffer, salt and pH not given in material; settings: protein: recombinant;recombinant;recombinant; tags: His (pET21b);none (pET9a);His (pET21b); copies: 1;1;1; label: 32P

T1 sequence (P83949 other isoform, or with tags, fused parts or gaps ||, chain 1 of 3): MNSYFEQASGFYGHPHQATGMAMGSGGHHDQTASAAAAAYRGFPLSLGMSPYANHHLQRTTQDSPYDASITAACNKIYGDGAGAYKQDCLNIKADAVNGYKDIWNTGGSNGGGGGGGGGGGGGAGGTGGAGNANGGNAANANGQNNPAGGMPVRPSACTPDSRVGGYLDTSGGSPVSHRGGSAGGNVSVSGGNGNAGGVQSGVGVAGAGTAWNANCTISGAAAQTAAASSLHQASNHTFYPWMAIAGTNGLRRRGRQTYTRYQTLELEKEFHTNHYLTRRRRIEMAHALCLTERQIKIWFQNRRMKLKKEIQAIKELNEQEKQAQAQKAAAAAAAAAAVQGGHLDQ
T1 sequence (P40427 whole entry, chain 2 of 3, the tested form may be a part, canonical isoform): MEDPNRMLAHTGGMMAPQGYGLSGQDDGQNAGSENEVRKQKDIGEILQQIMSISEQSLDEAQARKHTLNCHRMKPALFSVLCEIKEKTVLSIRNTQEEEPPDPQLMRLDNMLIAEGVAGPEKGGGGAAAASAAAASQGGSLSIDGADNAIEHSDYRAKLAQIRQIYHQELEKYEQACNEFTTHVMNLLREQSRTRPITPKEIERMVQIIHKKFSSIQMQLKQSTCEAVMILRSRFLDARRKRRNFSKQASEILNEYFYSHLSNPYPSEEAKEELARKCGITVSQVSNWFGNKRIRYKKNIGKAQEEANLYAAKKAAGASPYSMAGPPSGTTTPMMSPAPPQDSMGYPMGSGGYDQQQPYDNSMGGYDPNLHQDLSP
T1 sequence (O46339 1-211, chain 3 of 3): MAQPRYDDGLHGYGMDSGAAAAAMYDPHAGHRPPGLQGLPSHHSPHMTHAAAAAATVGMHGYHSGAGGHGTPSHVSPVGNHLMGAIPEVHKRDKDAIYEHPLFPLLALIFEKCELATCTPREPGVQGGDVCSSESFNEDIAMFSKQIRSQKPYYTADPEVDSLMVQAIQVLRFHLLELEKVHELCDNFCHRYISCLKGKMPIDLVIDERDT

B1: main class 1 + overlapping high-affinity class 3 oligo (dsDNA)
DNA 1: ACGGGATTTGATTGATTTATTAGAATTCGGCGACGAACGAAAGC
DNA 2: GCTTTCGTTCGTCGCCGAATTCTAATAAATCAATCAAATCCCGT
B1: binds [1].

B2: mutant main + high-affinity overlapping class 3 oligo (dsDNA)
DNA 1: ACGGGATACGATTGATTTATTAGAATTCGGCGACGAACGAAAGC
DNA 2: GCTTTCGTTCGTCGCCGAATTCTAATAAATCAATCGTATCCCGT
B2: binds [2].
